Data as given in article PMC11891140.
Blank lines part the entries; values can stand above or below the molecule they belong to.

Columns and labels:
[1] = biological target: RAB-10 used in GST pull-downs, loaded with GTPγS or GDP (UniProt Q94148); test: GST pull-down; conditions: GST::RAB-10 loaded with GTPγS; in vitro translated HA-tagged prey; three independent replicates; parent: est. 6.1; read off a plot
[2] = biological target: EGL-8 used as bait in GST pull-downs of UNC-16 domains (Fig. 5D, 7J) (UniProt G5EBH0); test: GST pull-down; conditions: GST::EGL-8 bait (x label in J' printed as GST::RAB-8); in vitro translated HA-tagged prey; three independent replicates; parent: est. 3.2; read off a plot
Sequence of UniProt G5EBH0 (G5EBH0 whole entry, the tested form may be a part): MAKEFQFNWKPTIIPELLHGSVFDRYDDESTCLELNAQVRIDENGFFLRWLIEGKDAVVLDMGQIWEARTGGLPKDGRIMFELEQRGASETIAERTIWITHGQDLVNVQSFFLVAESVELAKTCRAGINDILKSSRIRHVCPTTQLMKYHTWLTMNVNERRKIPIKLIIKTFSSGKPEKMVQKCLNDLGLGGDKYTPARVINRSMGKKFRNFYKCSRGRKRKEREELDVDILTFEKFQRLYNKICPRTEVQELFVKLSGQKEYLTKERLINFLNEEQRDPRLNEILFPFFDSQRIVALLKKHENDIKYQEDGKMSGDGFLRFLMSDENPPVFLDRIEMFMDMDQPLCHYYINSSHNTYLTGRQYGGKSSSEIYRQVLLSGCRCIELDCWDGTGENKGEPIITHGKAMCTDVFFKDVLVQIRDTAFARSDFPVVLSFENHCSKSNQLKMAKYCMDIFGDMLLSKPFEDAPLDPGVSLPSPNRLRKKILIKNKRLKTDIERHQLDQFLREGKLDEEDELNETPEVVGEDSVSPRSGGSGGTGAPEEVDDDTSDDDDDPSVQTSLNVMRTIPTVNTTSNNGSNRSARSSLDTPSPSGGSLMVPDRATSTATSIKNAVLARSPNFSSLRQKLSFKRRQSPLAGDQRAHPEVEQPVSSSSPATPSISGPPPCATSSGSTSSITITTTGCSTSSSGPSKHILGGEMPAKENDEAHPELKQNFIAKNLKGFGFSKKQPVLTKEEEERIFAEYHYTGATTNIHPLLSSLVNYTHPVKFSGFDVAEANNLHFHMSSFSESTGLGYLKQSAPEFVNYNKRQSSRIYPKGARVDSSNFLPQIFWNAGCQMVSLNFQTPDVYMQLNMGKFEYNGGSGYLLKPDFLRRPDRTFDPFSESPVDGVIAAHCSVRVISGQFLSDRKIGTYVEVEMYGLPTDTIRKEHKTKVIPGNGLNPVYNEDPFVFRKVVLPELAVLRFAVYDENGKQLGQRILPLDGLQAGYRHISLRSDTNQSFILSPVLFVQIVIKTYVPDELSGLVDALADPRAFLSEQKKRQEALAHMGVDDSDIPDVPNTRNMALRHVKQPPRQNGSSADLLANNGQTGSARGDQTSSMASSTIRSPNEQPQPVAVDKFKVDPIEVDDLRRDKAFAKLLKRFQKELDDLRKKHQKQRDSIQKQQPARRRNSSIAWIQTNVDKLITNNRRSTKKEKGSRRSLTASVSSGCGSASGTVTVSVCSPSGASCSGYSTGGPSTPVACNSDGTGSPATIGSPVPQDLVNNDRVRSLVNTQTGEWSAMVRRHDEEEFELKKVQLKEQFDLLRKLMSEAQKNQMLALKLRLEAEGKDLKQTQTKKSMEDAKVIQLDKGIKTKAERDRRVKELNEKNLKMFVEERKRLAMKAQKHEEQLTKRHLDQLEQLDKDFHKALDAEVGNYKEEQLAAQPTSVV

[3] = biological target: purified UNC-16-LZII domain fragment (260–849 aa) (C. elegans); test: native gel or EMSA; native-PAGE of purified UNC-16-LZII domain and its L360P variant (260–849 aa); dimer formation; three independent experiments
[4] = biological target: T1, purified UNC-16-LZII domain fragment (260–849 aa), L360P variant; test: Native-PAGE; conditions: chain shown with the change; three independent experiments; P = 0.0034; parent: est. 0.86; read off a plot
T1 chain: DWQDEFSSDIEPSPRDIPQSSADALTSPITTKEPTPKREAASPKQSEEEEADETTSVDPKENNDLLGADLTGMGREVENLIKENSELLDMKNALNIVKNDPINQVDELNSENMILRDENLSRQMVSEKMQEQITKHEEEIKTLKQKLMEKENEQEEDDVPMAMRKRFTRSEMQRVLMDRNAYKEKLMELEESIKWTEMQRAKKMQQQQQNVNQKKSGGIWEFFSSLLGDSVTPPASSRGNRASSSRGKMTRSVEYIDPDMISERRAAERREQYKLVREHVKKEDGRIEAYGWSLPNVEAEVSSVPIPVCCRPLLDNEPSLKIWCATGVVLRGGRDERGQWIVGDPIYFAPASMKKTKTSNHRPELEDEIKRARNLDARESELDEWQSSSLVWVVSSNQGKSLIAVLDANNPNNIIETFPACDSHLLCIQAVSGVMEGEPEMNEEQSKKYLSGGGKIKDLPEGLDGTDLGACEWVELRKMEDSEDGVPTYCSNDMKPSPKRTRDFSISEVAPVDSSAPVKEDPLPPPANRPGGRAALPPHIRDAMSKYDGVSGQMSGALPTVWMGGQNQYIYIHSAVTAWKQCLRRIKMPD

Sequence of UniProt Q94148 (Q94148 whole entry, the tested form may be a part): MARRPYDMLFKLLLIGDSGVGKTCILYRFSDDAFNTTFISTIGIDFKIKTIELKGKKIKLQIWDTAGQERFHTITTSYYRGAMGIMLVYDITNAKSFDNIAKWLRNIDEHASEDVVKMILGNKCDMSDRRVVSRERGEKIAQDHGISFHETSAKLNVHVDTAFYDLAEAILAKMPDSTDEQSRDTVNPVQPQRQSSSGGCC

- response (binding/input) [1]: 0.1
- response (binding/input) [2]: 0.1
Molecule: HA-tagged UNC-16 fragment containing the LZII domain (in vitro translated) L353A; N354A; I355A; V356A; K357A; N358A; D359A; L360A; I361A; N362A; Q363A; V364A; D365A; E366A; L367A

- response (binding/input) [2]: 0.65
Molecule: HA-tagged UNC-16 fragment containing the LZII domain (in vitro translated) L360P

- stoichiometry N [3]: 2
Molecule: purified UNC-16-LZII domain fragment (260–849 aa) (domain or fragment)

- other: ratio of dimer to monomer [4]: 0.58
B1: purified UNC-16-LZII domain fragment (260–849 aa) L360P (protein)
chain: T1 chain
